From patent US20110044994A1

What was measured:
Assay in all cases: cell-based or functional assay
[1] = biological target: 92RW020 pseudovirus Env (HIV-1)
[2] = biological target: ADA pseudovirus Env (HIV-1)
[3] = biological target: JR-CSF (I309A) pseudovirus Env (HIV-1) (UniProt P20871)
[4] = biological target: JR-CSF (Y318A) pseudovirus Env (HIV-1) (UniProt P20871)
[5] = biological target: JR-CSF pseudovirus (HIV-1 Env on the virions) (HIV-1) (UniProt P20871)
[6] = biological target: JR-FL (E168K) pseudovirus Env (HIV-1)

B1: 1503_H05 (PG16) (antibody, V domains shown)
VH: QEKLVESGGGVVQPGGSLRLSCLASGFTFHKYGMHWVRQAPGKGLEWVALISDDGMRKYHSDSMWGRVTISRDNSKNTLYLQFSSLKVEDTAMFFCAREAGGPIWHDDVKYYDFNDGYYNYHYMDVWGKGTIVTVSS
VL: QSALTQPASVSGSPGQTITISCNGTRSDVGGFDSVSWYQQSPGKAPKVMVFDVSHRPSGISNRFSGSKSGNTASLTISGLHIEDEGDYFCSSLTDRSHRIFGGGTKVTVLG
IC50 (ug/ml), pseudovirus neutralization, TZM-bl assay [1]: 0.02 µg/mL | IC50 (ug/ml), pseudovirus neutralization, TZM-bl assay [2]: 0.003 µg/mL | IC50 (ug/ml), pseudovirus neutralization, TZM-bl assay [3]: > 1 µg/mL | IC50 (ug/ml), pseudovirus neutralization, TZM-bl assay [4]: > 1 µg/mL | IC50 (ug/ml), pseudovirus neutralization, TZM-bl assay [5]: 0.001 µg/mL | IC50 (ug/ml), pseudovirus neutralization, TZM-bl assay [6]: 0.002 µg/mL

B2: 1456_A12 (PG16) (antibody, V domains shown)
VH: HEQLVEAGGGVVQPGGSLRLSCLASGFTFHKYGMHWVRQAPGKGLEWVALISDDGMRKYHSDSMWGRVTISRDNSKNTLYLQFSSLRVEDTAMFFCAREAGGPIWHDDVKYYDFNDGYYNYHYMDVWGKGTKVTVSS
VL: QSALTQPASVSGSPGQTITISCNGTSRDVGGFDSVSWYQQSPGKAPKVMVFDVSHRPSGMSNRFSGSKSGNTASLTISGLHIEDEGDYFCSSLTDRSHRIFGGGTKLTVLG
IC50 (ug/ml), pseudovirus neutralization, TZM-bl assay [1]: 0.05 µg/mL | IC50 (ug/ml), pseudovirus neutralization, TZM-bl assay [2]: 0.005 µg/mL | IC50 (ug/ml), pseudovirus neutralization, TZM-bl assay [3]: > 1 µg/mL | IC50 (ug/ml), pseudovirus neutralization, TZM-bl assay [4]: > 1 µg/mL | IC50 (ug/ml), pseudovirus neutralization, TZM-bl assay [5]: 0.001 µg/mL | IC50 (ug/ml), pseudovirus neutralization, TZM-bl assay [6]: 0.003 µg/mL

B3: 1489_I13 (PG16) (antibody, V domains shown)
VH: QEQLLESGGGVVQPGGSLRLSCLASGFTFHKYGMHWVRQAPGKGLEWVALISDDGMRKYHSNSMWGRVTISRDNSKNTLYLQFSSLKVEDTAMFFCAREAGGPIWHDDVKYYDFNDGYYNYHYMDVWGKGTTVTVSS
VL: QSALTQPASVSGSPGQTITISCNGTSSDVGGFDSVSWYQQSPGKAPKVMVFDVSHRPSGISNRFSGSKSGNTASLTISGLHIEDEGDYFCSSLTDRSHRIFGGGTKVTVLG
IC50 (ug/ml), pseudovirus neutralization, TZM-bl assay [1]: 0.03 µg/mL | IC50 (ug/ml), pseudovirus neutralization, TZM-bl assay [2]: 0.008 µg/mL | IC50 (ug/ml), pseudovirus neutralization, TZM-bl assay [3]: > 1 µg/mL | IC50 (ug/ml), pseudovirus neutralization, TZM-bl assay [4]: > 1 µg/mL | IC50 (ug/ml), pseudovirus neutralization, TZM-bl assay [5]: 0.002 µg/mL | IC50 (ug/ml), pseudovirus neutralization, TZM-bl assay [6]: 0.005 µg/mL

B4: 1469_M23 (PG16) (antibody, V domains shown)
VH: QEKLVESGGGVVQPGGSLRLSCLASGFTFHKYGMHWVRQAPGKGLEWVALISDDGMRKYHSDSMWGRVTISRDNSKNTLYLQFSSLKVEDTAMFFCAREAGGPIWHDDVKYYDFNDGYYNYHYMDVWGKGTTVTVSS
VL: QSALTQPASVSGSPGQTITISCNGTRSDVGGFDSVSWYQQSPGRAPKVMVFDVSHRPSGISNRFSGSKSGNTASLTISGLHIEDEGDYFCSSLTDRSHRIFGGGTKLTVLG
IC50 (ug/ml), pseudovirus neutralization, TZM-bl assay [1]: 0.05 µg/mL | IC50 (ug/ml), pseudovirus neutralization, TZM-bl assay [2]: 0.005 µg/mL | IC50 (ug/ml), pseudovirus neutralization, TZM-bl assay [3]: > 1 µg/mL | IC50 (ug/ml), pseudovirus neutralization, TZM-bl assay [4]: > 1 µg/mL | IC50 (ug/ml), pseudovirus neutralization, TZM-bl assay [5]: 0.002 µg/mL | IC50 (ug/ml), pseudovirus neutralization, TZM-bl assay [6]: 0.005 µg/mL
